Consider 6 molecules from patent US20200024358A1 (published 2020).

In assay [1] the target is T1, recombinant Human BCMA Fc Chimera (produced in-house via transient expression in HEK293-6E cells) (human, UniProt Q02223 1-54).
T1 construct: not shown: Fc part of the chimera
T1 sequence (looked up): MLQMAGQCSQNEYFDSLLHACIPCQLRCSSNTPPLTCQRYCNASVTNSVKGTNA
As to the kind of experiment: dual-binding ELISA: BCMA Fc coated, then CD3 epsilon His, anti-His detection.

Assay [2] has as its target T2, recombinant human CD3 epsilon His-tag protein (Novoprotein, Cat. No. C578) (human, UniProt P07766 23-126).
T2 construct: Bought protein; not shown: His-tag
Described as above.

Assay [3] addresses T3, recombinant human PD-L1 His-tag protein (expressed after transient transfection in HEK293-6E) (human, UniProt Q9NZQ7 19-238, limits assumed).
T3 construct: not shown: His-tag
Description: dual-binding ELISA: BCMA Fc coated, then PD-L1 His, anti-His detection.

Assay [4] has as its target T1, recombinant Human BCMA Fc Chimera …. As to the kind of experiment: dual-binding ELISA: BCMA Fc coated, then CD3 epsilon His or PD-L1 His, anti-His detection.
Description: Trispecific antibody molecules were tested for their ability to bind the different targets using a Dual-Binding ELISA. […] Simultaneous binding to antigen pairs was detected via an anti-His antibody (Abcam, Cat. No. ab1187).
Assay [5] deals with T4, extracellular domain of human PD-L1 (Example 8) (human, UniProt Q9NZQ7 19-238).
T4 construct: extracellular domain; also called PD-L1 antigen; immobilized PD-L1
T4 sequence (Q9NZQ7 19-238): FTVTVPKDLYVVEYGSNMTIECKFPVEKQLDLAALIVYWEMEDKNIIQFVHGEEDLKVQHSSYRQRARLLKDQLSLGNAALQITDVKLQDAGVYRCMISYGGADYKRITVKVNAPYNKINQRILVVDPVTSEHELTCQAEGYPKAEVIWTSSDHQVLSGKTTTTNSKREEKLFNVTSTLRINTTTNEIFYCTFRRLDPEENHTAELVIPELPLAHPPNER
Description: Kinetic Exclusion Assay (KinExA 3200), 1:1 model.
Description: (§1) Studies were designed to measure the free antibody in samples with a fixed antibody concentration and different concentrations of antigen PD-L1 at equilibrium, reaction mixtures were performed in PBS (pH 7.4) with 1 mg/ml BSA. […] The equilibrium titration and kinetics data were fit to a 1:1 reversible binding model using KinExA Pro software (version 4.2.10; Sapidyne Instruments) to determine the Kd.

Assay [6] has as its target T5, Human BCMA labelled with a fluorescent dye (human, UniProt Q02223 1-54, limits assumed, labelled with a fluorescent dye (dye and site not stated)).
T5 construct: also called fluorescently labeled BCMA
T5 sequence (looked up): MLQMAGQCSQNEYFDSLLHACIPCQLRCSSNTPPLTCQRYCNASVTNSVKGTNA
As to the kind of experiment: MicroScale Thermophoresis, labelled BCMA at 2 nM.

Assay [7] has as its target T4, extracellular domain of human PD-L1 …. Description: competition ELISA in solution (Friguet), Scatchard plot.
Description: First, mixtures of the trispecific antibody (Ab) at a fixed concentration and the PD-L1 antigen (Ag) at varying concentrations were incubated for sufficient time to reach equilibrium. Then the concentration of trispecific antibody, which remained unsaturated at equilibrium (not associated with PD-L1 antigen), was measured by a classical indirect ELISA using PD-L1 coated plates. […] The Kd was calculated from a Scatchard plot using the following equation:
Assay [8] shares this target. As to the kind of experiment: Kinetic Exclusion Assay (KinExA 3200).
Description: as §1

T2 sequence (P07766 23-126): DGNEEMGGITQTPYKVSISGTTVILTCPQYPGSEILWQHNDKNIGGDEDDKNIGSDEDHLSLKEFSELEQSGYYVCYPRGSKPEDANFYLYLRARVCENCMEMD
T3 sequence (Q9NZQ7 19-238 limits assumed): as the sequence (Q9NZQ7 19-238) above

B1: CDR1-008 (bispecific antibody)
scFv: DIVLTQSPASLAMSLGKRATISCRASESVSVIGAHLIHWYQQKPGQPPKLLIYLASNLETGVPARFSGSGSGTDFTLTIDPVEEDDVAIYSCLQSRIFPRTFGGGTKLEIKGGGGSGGGGSGGGGSGGGGSQIQLVQSGPELKKPGETVKISCKASGYTFTDYSINWVKRAPGKGLKWMGWINTETREPAYAYDFRGRFAFSLETSASTAYLQINNLKYEDTATYFCALDYSYAMDYWGQGTSVTVSSGGGGSAVVTQEPSLTVSPGGTVTLTCGSSTGAVTTSNYANWVQQKPGKSPRGLIGGTNKRAPGVPARFSGSLLGGKAALTISGAQPEDEADYYCALWYSNHWVFGGGTKLTVLGGGGGSGGGGSGGGGSGGGGSEVQLVESGGGSVQPGGSLRLSCAASGFTFSTYAMNWVRQAPGKGLEWVGRIRSKANNYATYYADSVKGRFTISRDDSKNTLYLQMNSLRAEDTATYYCVRHGNFGDSYVSWFAYWGQGTTVTVSS
notes: also called bispecific tandem scFv BCMA/CD3; scFv BCMA/scFv CD3 BiTE
In the case of B1, the binding result in assay [1] and in assay [2] was “binds” in each case.

B2: CDR1-056 (other)
chain: AVVTQEPSLTVSPGGTVTLTCGSSTGAVTTSNYANWVQQKPGKSPRGLIGGTNKRAPGVPARFSGSLLGGKAALTISGAQPEDEADYYCALWYSNHWVFGGGTKLTVLGGGGGSGGGGSGGGGSGGGGSEVQLVESGGGSVQPGGSLRLSCAASGFTFSTYAMNWVRQAPGKGLEWVGRIRSKANNYATYYADSVKGRFTISRDDSKNTLYLQMNSLRAEDTATYYCVRHGNFGDSYVSWFAYWGQGTTVTVSSGGGGSQVQLVESGGGLVQPGGSLRLSCAASGKMSSRRCMAWFRQAPGKGLERVAKLLTTSGSTYLADSVKGRFTISRDNSKNTVYLQMNSLRAEDTAVYYCAADSFEDPTCTLVTSSGAFQYWGQGTLVTVSSGGGGSQVQLVESGGGLVQPGGSLRLSCAASGFTLDYYAIGWFRQAPGKEREGVSCISRSDGSTYYADSVKGRFTISRDNAKNTVYLQMNSLKPEDTAVYYCAAAGADCSGYLRDYEFWGQGTLVTVSS
notes: Trispecific tandem scFv-sdAb-sdAb on one chain; also called CDR-056
On to B2, for which the binding result in assay [3], in assay [2] and in assay [4] was “binds” throughout.

B3: CDR1-007 (other)
heavy: QIQLVQSGPELKKPGETVKISCKASGYTFTDYSINWVKRAPGKGLKWMGWINTETREPAYAYDFRGRFAFSLETSASTAYLQINNLKYEDTATYFCALDYSYAMDYWGQGTSVTVSSASTKGPSVFPLAPSSKSTSGGTAALGCLVKDYFPEPVTVSWNSGALTSGVHTFPAVLQSSGLYSLSSVVTVPSSSLGTQTYICNVNHKPSNTKVDKRVEPKSCGGGGSEIVMTQSPSTLSASVGDRVIITCQASEDIYSLLAWYQQKPGKAPKLLIYDASDLASGVPSRFSGSGSGAEFTLTISSLQPDDSATYYCQGNYGSSSSSSYGAVFGQGTKLTVLGGGGGSGGGGSGGGGSGGGGSEVQLVESGGGSVQPGGSLRLSCTVSGIDLSSYTMGWVRQAPGKGLEWVGIISSGGRTYYASWAKGRFTISRDTSKNTVYLQMNSLRAEDTATYYCARGRYTGYPYYFALWGQGTTVTVSS
light: DIVLTQSPASLAMSLGKRATISCRASESVSVIGAHLIHWYQQKPGQPPKLLIYLASNLETGVPARFSGSGSGTDFTLTIDPVEEDDVAIYSCLQSRIFPRTFGGGTKLEIKRTVAAPSVFIFPPSDEQLKSGTASVVCLLNNFYPREAKVQWKVDNALQSGNSQESVTEQDSKDSTYSLSSTLTLSKADYEKHKVYACEVTHQGLSSPVTKSFNRGECGGGGSAVVTQEPSLTVSPGGTVTLTCGSSTGAVTTSNYANWVQQKPGKSPRGLIGGTNKRAPGVPARFSGSLLGGKAALTISGAQPEDEADYYCALWYSNHWVFGGGTKLTVLGGGGGSGGGGSGGGGSGGGGSEVQLVESGGGSVQPGGSLRLSCAASGFTFSTYAMNWVRQAPGKGLEWVGRIRSKANNYATYYADSVKGRFTISRDDSKNTLYLQMNSLRAEDTATYYCVRHGNFGDSYVSWFAYWGQGTTVTVSS
notes: also called CDR-007; trispecific CDR1-007
B3: the values for the Kd in assay [5], in assay [6] and in assay [7] were 0.0217 to 0.042 nM, 8.5 to 9.9 nM and 0.11 nM, respectively. Further, the binding result in assay [2] is “binds”.

B4: CDR1-005 (bispecific antibody)
heavy: QIQLVQSGPELKKPGETVKISCKASGYTFTDYSINWVKRAPGKGLKWMGWINTETREPAYAYDFRGRFAFSLETSASTAYLQINNLKYEDTATYFCALDYSYAMDYWGQGTSVTVSSASTKGPSVFPLAPSSKSTSGGTAALGCLVKDYFPEPVTVSWNSGALTSGVHTFPAVLQSSGLYSLSSVVTVPSSSLGTQTYICNVNHKPSNTKVDKRVEPKSC
light: DIVLTQSPASLAMSLGKRATISCRASESVSVIGAHLIHWYQQKPGQPPKLLIYLASNLETGVPARFSGSGSGTDFTLTIDPVEEDDVAIYSCLQSRIFPRTFGGGTKLEIKRTVAAPSVFIFPPSDEQLKSGTASVVCLLNNFYPREAKVQWKVDNALQSGNSQESVTEQDSKDSTYSLSSTLTLSKADYEKHKVYACEVTHQGLSSPVTKSFNRGECGGGGSAVVTQEPSLTVSPGGTVTLTCGSSTGAVTTSNYANWVQQKPGKSPRGLIGGTNKRAPGVPARFSGSLLGGKAALTISGAQPEDEADYYCALWYSNHWVFGGGTKLTVLGGGGGSGGGGSGGGGSGGGGSEVQLVESGGGSVQPGGSLRLSCAASGFTFSTYAMNWVRQAPGKGLEWVGRIRSKANNYATYYADSVKGRFTISRDDSKNTLYLQMNSLRAEDTATYYCVRHGNFGDSYVSWFAYWGQGTTVTVSS
As to B4, the binding result in assay [1] and in assay [2] was “binds” each time.

B5: CDR1-011 (other)
heavy: QIQLVQSGPELKKPGETVKISCKASGYTFTDYSINWVKRAPGKGLKWMGWINTETREPAYAYDFRGRFAFSLETSASTAYLQINNLKYEDTATYFCALDYSYAMDYWGQGTSVTVSSASTKGPSVFPLAPSSKSTSGGTAALGCLVKDYFPEPVTVSWNSGALTSGVHTFPAVLQSSGLYSLSSVVTVPSSSLGTQTYICNVNHKPSNTKVDKRVEPKSCGGGGSEIVMTQSPSTLSASVGDRVIITCQASEDIASLLAWYQQKPGKAPKLLIYDASDLASGVPSRFSGSGSGAEFTLTISSLQPDDSATYYCQGNYGSSSSSSYGAVFGQGTKLTVLGGGGGSGGGGSGGGGSGGGGSEVQLVESGGGSVQPGGSLRLSCTVSGIDLSSYTMGWVRQAPGKGLEWVGIISSGGRTYYASWAKGRFTISRDTSKNTVYLQMNSLRAEDTATYYCARGRYTGYPYYFALWGQGTTVTVSS
light: DIVLTQSPASLAMSLGKRATISCRASESVSVIGAHLIHWYQQKPGQPPKLLIYLASNLETGVPARFSGSGSGTDFTLTIDPVEEDDVAIYSCLQSRIFPRTFGGGTKLEIKRTVAAPSVFIFPPSDEQLKSGTASVVCLLNNFYPREAKVQWKVDNALQSGNSQESVTEQDSKDSTYSLSSTLTLSKADYEKHKVYACEVTHQGLSSPVTKSFNRGECGGGGSAVVTQEPSLTVSPGGTVTLTCGSSTGAVTTSNYANWVQQKPGKSPRGLIGGTNKRAPGVPARFSGSLLGGKAALTISGAQPEDEADYYCALWYSNHWVFGGGTKLTVLGGGGGSGGGGSGGGGSGGGGSEVQLVESGGGSVQPGGSLRLSCAASGFTFSTYAMNWVRQAPGKGLEWVGRIRSKANNYATYYADSVKGRFTISRDDSKNTLYLQMNSLRAEDTATYYCVRHGNFGDSYVSWFAYWGQGTTVTVSS
notes: also called CDR1-0011
Turning to B5, the Kd in assay [7] was 5 nM.

B6: CDR1-017 (other)
heavy: QIQLVQSGPELKKPGETVKISCKASGYTFTDYSINWVKRAPGKGLKWMGWINTETREPAYAYDFRGRFAFSLETSASTAYLQINNLKYEDTATYFCALDYSYAMDYWGQGTSVTVSSASTKGPSVFPLAPSSKSTSGGTAALGCLVKDYFPEPVTVSWNSGALTSGVHTFPAVLQSSGLYSLSSVVTVPSSSLGTQTYICNVNHKPSNTKVDKRVEPKSCGGGGSEIVMTQSPSTLSASVGDRVIITCQASEDIYSLLAWYQQKPGKAPKLLIYDASDLASGVPSRFSGSGSGAEFTLTISSLQPDDSATYYCQGNYGSSSSSSYGAVFGQGTKLTVLGGGGGSGGGGSGGGGSGGGGSEVQLVESGGGSVQPGGSLRLSCTVSGIDLSSYTMGWVRQAPGKGLEWVGIISSGGRTYYASWAKGRFTISRDTSKNTVYLQMNSLRAEDTATYYCARGAYTGYPYYFALWGQGTTVTVSS
light: DIVLTQSPASLAMSLGKRATISCRASESVSVIGAHLIHWYQQKPGQPPKLLIYLASNLETGVPARFSGSGSGTDFTLTIDPVEEDDVAIYSCLQSRIFPRTFGGGTKLEIKRTVAAPSVFIFPPSDEQLKSGTASVVCLLNNFYPREAKVQWKVDNALQSGNSQESVTEQDSKDSTYSLSSTLTLSKADYEKHKVYACEVTHQGLSSPVTKSFNRGECGGGGSAVVTQEPSLTVSPGGTVTLTCGSSTGAVTTSNYANWVQQKPGKSPRGLIGGTNKRAPGVPARFSGSLLGGKAALTISGAQPEDEADYYCALWYSNHWVFGGGTKLTVLGGGGGSGGGGSGGGGSGGGGSEVQLVESGGGSVQPGGSLRLSCAASGFTFSTYAMNWVRQAPGKGLEWVGRIRSKANNYATYYADSVKGRFTISRDDSKNTLYLQMNSLRAEDTATYYCVRHGNFGDSYVSWFAYWGQGTTVTVSS
notes: also called trispecific CDR1-017
In the case of B6, the “fold difference in affinity against CDR1-007 (WT)” value in assay [8] is around 1000 fold. Besides, in assay [7], the Kd was found to be 26 nM.
